Where only a bound is given, the exact number is not on record here.

Experiment [1] concerns the target Amylin RBA (rat) (UniProt P32214). Description: radioligand binding assay (displacement of radiolabeled amylin).
Experiment [2] deals with CGRP RBA (UniProt Q16602). Description: radioligand binding assay (displacement of radiolabeled CGRP).
Experiment [3] deals with calcitonin receptor of CHO cells. Description: cell-based or functional assay.
Experiment [4] concerns the target T1, calcitonin receptor of T47D cells (UniProt P30988).
T1 sequence (looked up): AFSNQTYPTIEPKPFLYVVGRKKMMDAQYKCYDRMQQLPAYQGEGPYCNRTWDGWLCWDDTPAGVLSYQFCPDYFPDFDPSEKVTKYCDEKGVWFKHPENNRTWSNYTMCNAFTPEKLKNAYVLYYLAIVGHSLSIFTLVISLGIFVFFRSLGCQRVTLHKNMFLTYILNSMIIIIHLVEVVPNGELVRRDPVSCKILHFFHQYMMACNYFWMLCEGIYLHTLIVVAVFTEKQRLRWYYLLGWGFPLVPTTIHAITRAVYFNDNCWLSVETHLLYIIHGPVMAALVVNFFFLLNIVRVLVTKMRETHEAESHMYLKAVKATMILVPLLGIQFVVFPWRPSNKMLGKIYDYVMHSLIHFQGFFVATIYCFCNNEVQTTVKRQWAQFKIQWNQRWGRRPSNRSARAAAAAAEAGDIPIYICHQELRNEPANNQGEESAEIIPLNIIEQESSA
Description: cell-based or functional assay.

Experiment [5] has as its target CGRP receptor (membranes prepared from SK-N-MC cells) (UniProt Q16602). Description: radioligand displacement, 125I-hCGRP, SK-N-MC cell membranes. (In general: In a radioligand displacement assay an active substance lowers the binding of a labelled ligand.)
The target of experiment [6] is calcitonin receptor (receptor binding assay). Description: rCalcitonin RBA, method not described.

Amylin RBA (rat), sequence (P32214 other isoform, or with tags, fused parts or gaps, chain 1 of 2): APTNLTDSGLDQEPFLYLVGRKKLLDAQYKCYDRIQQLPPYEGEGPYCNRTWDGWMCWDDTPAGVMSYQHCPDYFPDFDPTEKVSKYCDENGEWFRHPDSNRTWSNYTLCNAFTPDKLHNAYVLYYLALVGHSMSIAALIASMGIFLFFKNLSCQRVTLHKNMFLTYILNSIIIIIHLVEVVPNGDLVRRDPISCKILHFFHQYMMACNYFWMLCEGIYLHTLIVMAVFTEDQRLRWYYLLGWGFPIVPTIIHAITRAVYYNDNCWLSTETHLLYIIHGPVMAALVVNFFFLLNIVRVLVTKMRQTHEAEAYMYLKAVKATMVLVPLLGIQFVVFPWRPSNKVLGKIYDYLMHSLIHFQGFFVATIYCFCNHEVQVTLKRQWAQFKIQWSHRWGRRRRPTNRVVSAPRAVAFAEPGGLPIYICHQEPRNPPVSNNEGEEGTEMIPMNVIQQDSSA
Amylin RBA (rat), sequence (Q9JJ74 27-148, chain 2 of 2, further chain): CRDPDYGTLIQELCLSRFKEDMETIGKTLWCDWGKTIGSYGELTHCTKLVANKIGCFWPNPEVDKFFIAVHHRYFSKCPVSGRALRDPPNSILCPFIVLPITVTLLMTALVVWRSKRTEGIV
CGRP RBA, sequence (Q16602 23-461, chain 1 of 2): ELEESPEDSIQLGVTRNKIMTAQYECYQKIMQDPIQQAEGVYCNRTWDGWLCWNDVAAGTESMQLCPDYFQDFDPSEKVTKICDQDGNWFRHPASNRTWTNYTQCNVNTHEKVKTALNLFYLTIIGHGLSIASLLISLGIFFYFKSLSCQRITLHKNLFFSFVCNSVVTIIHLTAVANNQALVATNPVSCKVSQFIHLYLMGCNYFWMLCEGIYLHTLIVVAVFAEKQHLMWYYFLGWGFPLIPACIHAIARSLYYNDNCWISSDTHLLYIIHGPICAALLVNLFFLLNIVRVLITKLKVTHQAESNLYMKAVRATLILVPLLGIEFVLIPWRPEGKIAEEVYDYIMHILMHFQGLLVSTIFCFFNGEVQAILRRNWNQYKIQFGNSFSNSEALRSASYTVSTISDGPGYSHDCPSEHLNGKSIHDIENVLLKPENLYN
CGRP RBA, sequence (O60894 27-148, chain 2 of 2, further chain): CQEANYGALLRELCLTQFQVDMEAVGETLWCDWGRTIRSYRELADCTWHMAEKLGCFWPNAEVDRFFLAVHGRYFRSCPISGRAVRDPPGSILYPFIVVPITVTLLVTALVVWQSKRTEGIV
CGRP receptor (membranes prepared from SK-N-MC cells), sequence (Q16602 23-461 limits assumed, chain 1 of 2): as the sequence (Q16602 23-461, chain 1 of 2) above
CGRP receptor (membranes prepared from SK-N-MC cells), sequence (O60894 27-148 limits assumed, chain 2 of 2, further chain): as the sequence (O60894 27-148, chain 2 of 2, further chain) above

Broadly, the EC50 is the concentration giving half of the maximal effect. Lower therefore signals higher potency in that assay. With AFP-6 (1-31), the EC50 in experiment [1] is > 100 nM.
For the substance AFP-6 [1-31], in experiment [2], the EC50 is 277 nM.
In the case of Human CGRP α (peptide), in experiment [3], the EC50, cAMP (AlphaScreen), CHO cells, Average was found to be 80.4 nM; the EC50, cAMP (AlphaScreen), CHO cells, Experiment 1 was found to be 70.3 nM; the EC50, cAMP (AlphaScreen), CHO cells, Experiment 2 was 81.2 nM; the EC50, cAMP (AlphaScreen), CHO cells, Experiment 3 came out at 89.7 nM. In experiment [4], the EC50, cAMP (AlphaScreen), T47D cells, Average was 35.5 nM; the EC50, cAMP (AlphaScreen), T47D cells, Experiment 1 was 11.9 nM; the EC50, cAMP (AlphaScreen), T47D cells, Experiment 2 turned out to be 66.7 nM; the EC50, cAMP (AlphaScreen), T47D cells, Experiment 3 is 27.8 nM.
The term IC50 denotes the point on the concentration scale where inhibition reaches its midpoint. Turning to “r/h Amylin (from UniProt P12969 38-74) (peptide)”, in experiment [5], the IC50 turned out to be 12 nM.
r/h Calcitonin (peptide): the IC50 in experiment [6] was in the range of 1.3 to 3.4 nM.

The values are drawn from patent US20080207501A1.
